Measurements as given in the supplement of paper PMC10567573.

B1: KCTD10 (parent)
chain: SSKEEQKLIATSNKPAVKLLYNRS
B2: PRAME (parent)
chain: KKLKIFAMPMQDIKMILKMVQLDS

Variants of: B1
Assay: protein stability index of a GFP-peptide fusion (GPS, HEK-293T) (PSI 1-6); higher = more stable
Conditions: c terminus: a fixed tail appended
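Also: lentivirally expressed fusions sorted by FACS into six bins by GFP to DsRed ratio, PSI derived from sequencing read proportions per bin multiplied by bin number.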

| Variant | protein stability index |
| --- | --- |
| SSKEEQKLIATSNKPAVKLLTNRS | 4.54 |
| SSKEEQKLIATSNKPAVKLLVNRS | 3.67 |
| SSKEEQKLIATSNKPAVKLLWNRS | 4.05 |
| SSKEEQKLIATSNKPAVKLLYARS | 3.84 |
| SSKEEQKLIATSNKPAVKLLYCRS | 3.7 |
| SSKEEQKLIATSNKPAVKLLYDRS | 4.55 |
| SSKEEQKLIATSNKPAVKLLYERS | 4.22 |
| SSKEEQKLIATSNKPAVKLLYFRS | 3.17 |
| SSKEEQKLIATSNKPAVKLLYGRS | 4 |
| SSKEEQKLIATSNKPAVKLLYHRS | 4.01 |
| SSKEEQKLIATSNKPAVKLLYIRS | 2.71 |
| SSKEEQKLIATSNKPAVKLLYKRS | 4.16 |
| SSKEEQKLIATSNKPAVKLLYLRS | 3.14 |
| SSKEEQKLIATSNKPAVKLLYMRS | 2.92 |
| SSKEEQKLIATSNKPAVKLLYPRS | 3.83 |
| SSKEEQKLIATSNKPAVKLLYQRS | 4.09 |
| SSKEEQKLIATSNKPAVKLLYRRS | 4.15 |
| SSKEEQKLIATSNKPAVKLLYSRS | 3.41 |
| SSKEEQKLIATSNKPAVKLLYTRS | 4.12 |
| SSKEEQKLIATSNKPAVKLLYVRS | 3.54 |

| Variant | protein stability index |
| --- | --- |
| SSKEEQKLIATSNKPAVKLLYWRS | 2.73 |
| SSKEEQKLIATSNKPAVKLLYYRS | 2.96 |
| SSKEEQKLIATSNKPAVKLLYNAS | 3.99 |
| SSKEEQKLIATSNKPAVKLLYNCS | 3.76 |
| SSKEEQKLIATSNKPAVKLLYNDS | 4.71 |
| SSKEEQKLIATSNKPAVKLLYNES | 4.63 |
| SSKEEQKLIATSNKPAVKLLYNFS | 3.29 |
| SSKEEQKLIATSNKPAVKLLYNGS | 3.75 |
| SSKEEQKLIATSNKPAVKLLYNHS | 3.85 |
| SSKEEQKLIATSNKPAVKLLYNIS | 3.37 |
| SSKEEQKLIATSNKPAVKLLYNKS | 4.29 |
| SSKEEQKLIATSNKPAVKLLYNLS | 3.03 |
| SSKEEQKLIATSNKPAVKLLYNMS | 3.35 |
| SSKEEQKLIATSNKPAVKLLYNNS | 4.21 |
| SSKEEQKLIATSNKPAVKLLYNPS | 4.21 |
| SSKEEQKLIATSNKPAVKLLYNQS | 4.01 |
| SSKEEQKLIATSNKPAVKLLYNSS | 4.13 |
| SSKEEQKLIATSNKPAVKLLYNTS | 3.7 |
| SSKEEQKLIATSNKPAVKLLYNVS | 3.74 |
| SSKEEQKLIATSNKPAVKLLYNWS | 3.15 |

| Variant | protein stability index |
| --- | --- |
| SSKEEQKLIATSNKPAVKLLYNYS | 3.32 |
| SSKEEQKLIATSNKPAVKLLYNRA | 3.65 |
| SSKEEQKLIATSNKPAVKLLYNRC | 3.25 |
| SSKEEQKLIATSNKPAVKLLYNRD | 4.45 |
| SSKEEQKLIATSNKPAVKLLYNRE | 4.55 |
| SSKEEQKLIATSNKPAVKLLYNRF | 3.52 |
| SSKEEQKLIATSNKPAVKLLYNRG | 4.04 |
| SSKEEQKLIATSNKPAVKLLYNRH | 3.56 |
| SSKEEQKLIATSNKPAVKLLYNRI | 3.22 |
| SSKEEQKLIATSNKPAVKLLYNRK | 4.7 |
| SSKEEQKLIATSNKPAVKLLYNRL | 3.4 |
| SSKEEQKLIATSNKPAVKLLYNRM | 3.52 |
| SSKEEQKLIATSNKPAVKLLYNRN | 4.2 |
| SSKEEQKLIATSNKPAVKLLYNRP | 4.09 |
| SSKEEQKLIATSNKPAVKLLYNRQ | 4.17 |
| SSKEEQKLIATSNKPAVKLLYNRR | 4.46 |
| SSKEEQKLIATSNKPAVKLLYNRT | 4.21 |
| SSKEEQKLIATSNKPAVKLLYNRV | 3.5 |
| SSKEEQKLIATSNKPAVKLLYNRW | 2.6 |
| SSKEEQKLIATSNKPAVKLLYNRY | 3.48 |

Variants of: B2
Assay: as above
Conditions: c terminus: a fixed tail appended

| Variant | protein stability index |
| --- | --- |
| AKLKIFAMPMQDIKMILKMVQLDS | 3.05 |
| CKLKIFAMPMQDIKMILKMVQLDS | 2.92 |
| DKLKIFAMPMQDIKMILKMVQLDS | 3.38 |
| EKLKIFAMPMQDIKMILKMVQLDS | 2.31 |
| FKLKIFAMPMQDIKMILKMVQLDS | 4.97 |
| HKLKIFAMPMQDIKMILKMVQLDS | 3.51 |
| LKLKIFAMPMQDIKMILKMVQLDS | 2.86 |
| MKLKIFAMPMQDIKMILKMVQLDS | 2.68 |
| NKLKIFAMPMQDIKMILKMVQLDS | 3.99 |
| PKLKIFAMPMQDIKMILKMVQLDS | 3.89 |
| QKLKIFAMPMQDIKMILKMVQLDS | 2.55 |
| RKLKIFAMPMQDIKMILKMVQLDS | 3.39 |
| SKLKIFAMPMQDIKMILKMVQLDS | 3.56 |
| TKLKIFAMPMQDIKMILKMVQLDS | 3.61 |
| VKLKIFAMPMQDIKMILKMVQLDS | 2.08 |
| YKLKIFAMPMQDIKMILKMVQLDS | 1.86 |
| KALKIFAMPMQDIKMILKMVQLDS | 2.69 |
| KDLKIFAMPMQDIKMILKMVQLDS | 3.31 |
| KFLKIFAMPMQDIKMILKMVQLDS | 2.09 |
| KGLKIFAMPMQDIKMILKMVQLDS | 2.86 |
| KHLKIFAMPMQDIKMILKMVQLDS | 3.33 |
| KILKIFAMPMQDIKMILKMVQLDS | 3.39 |
| KLLKIFAMPMQDIKMILKMVQLDS | 2.34 |
| KMLKIFAMPMQDIKMILKMVQLDS | 1.79 |
| KNLKIFAMPMQDIKMILKMVQLDS | 4.46 |
| KPLKIFAMPMQDIKMILKMVQLDS | 2.61 |

| Variant | protein stability index |
| --- | --- |
| KQLKIFAMPMQDIKMILKMVQLDS | 3.53 |
| KRLKIFAMPMQDIKMILKMVQLDS | 1.59 |
| KSLKIFAMPMQDIKMILKMVQLDS | 2.94 |
| KTLKIFAMPMQDIKMILKMVQLDS | 2.9 |
| KVLKIFAMPMQDIKMILKMVQLDS | 2.36 |
| KYLKIFAMPMQDIKMILKMVQLDS | 3.88 |
| KKCKIFAMPMQDIKMILKMVQLDS | 2.1 |
| KKDKIFAMPMQDIKMILKMVQLDS | 3.34 |
| KKEKIFAMPMQDIKMILKMVQLDS | 1.06 |
| KKHKIFAMPMQDIKMILKMVQLDS | 3.6 |
| KKIKIFAMPMQDIKMILKMVQLDS | 1.63 |
| KKMKIFAMPMQDIKMILKMVQLDS | 4.28 |
| KKNKIFAMPMQDIKMILKMVQLDS | 2.82 |
| KKRKIFAMPMQDIKMILKMVQLDS | 2.1 |
| KKSKIFAMPMQDIKMILKMVQLDS | 2.92 |
| KKWKIFAMPMQDIKMILKMVQLDS | 2.03 |
| KKYKIFAMPMQDIKMILKMVQLDS | 4.33 |
| KKLAIFAMPMQDIKMILKMVQLDS | 2.11 |
| KKLCIFAMPMQDIKMILKMVQLDS | 2.4 |
| KKLDIFAMPMQDIKMILKMVQLDS | 1.92 |
| KKLEIFAMPMQDIKMILKMVQLDS | 2.02 |
| KKLFIFAMPMQDIKMILKMVQLDS | 2.44 |
| KKLGIFAMPMQDIKMILKMVQLDS | 4.41 |
| KKLHIFAMPMQDIKMILKMVQLDS | 4.52 |
| KKLIIFAMPMQDIKMILKMVQLDS | 3.41 |
| KKLMIFAMPMQDIKMILKMVQLDS | 3.45 |

| Variant | protein stability index |
| --- | --- |
| KKLNIFAMPMQDIKMILKMVQLDS | 1.6 |
| KKLPIFAMPMQDIKMILKMVQLDS | 2.85 |
| KKLQIFAMPMQDIKMILKMVQLDS | 3.25 |
| KKLRIFAMPMQDIKMILKMVQLDS | 1.99 |
| KKLSIFAMPMQDIKMILKMVQLDS | 3.49 |
| KKLTIFAMPMQDIKMILKMVQLDS | 3.69 |
| KKLVIFAMPMQDIKMILKMVQLDS | 3.08 |
| KKLWIFAMPMQDIKMILKMVQLDS | 2.87 |
| KKLKAFAMPMQDIKMILKMVQLDS | 3.02 |
| KKLKCFAMPMQDIKMILKMVQLDS | 2.65 |
| KKLKDFAMPMQDIKMILKMVQLDS | 1.82 |
| KKLKEFAMPMQDIKMILKMVQLDS | 3.63 |
| KKLKFFAMPMQDIKMILKMVQLDS | 2.77 |
| KKLKGFAMPMQDIKMILKMVQLDS | 4.35 |
| KKLKHFAMPMQDIKMILKMVQLDS | 1.77 |
| KKLKKFAMPMQDIKMILKMVQLDS | 4.37 |
| KKLKMFAMPMQDIKMILKMVQLDS | 3.17 |
| KKLKNFAMPMQDIKMILKMVQLDS | 4.02 |
| KKLKPFAMPMQDIKMILKMVQLDS | 2.55 |
| KKLKRFAMPMQDIKMILKMVQLDS | 2.43 |
| KKLKTFAMPMQDIKMILKMVQLDS | 2.5 |
| KKLKVFAMPMQDIKMILKMVQLDS | 3.29 |
| KKLKYFAMPMQDIKMILKMVQLDS | 2.6 |
| KKLKIAAMPMQDIKMILKMVQLDS | 2.77 |
| KKLKICAMPMQDIKMILKMVQLDS | 3.09 |
| KKLKIDAMPMQDIKMILKMVQLDS | 1.26 |

| Variant | protein stability index |
| --- | --- |
| KKLKIEAMPMQDIKMILKMVQLDS | 1.52 |
| KKLKIGAMPMQDIKMILKMVQLDS | 2.55 |
| KKLKIKAMPMQDIKMILKMVQLDS | 2.72 |
| KKLKILAMPMQDIKMILKMVQLDS | 3.92 |
| KKLKIMAMPMQDIKMILKMVQLDS | 1.84 |
| KKLKINAMPMQDIKMILKMVQLDS | 1.3 |
| KKLKIQAMPMQDIKMILKMVQLDS | 1.59 |
| KKLKIRAMPMQDIKMILKMVQLDS | 3.11 |
| KKLKITAMPMQDIKMILKMVQLDS | 2.2 |
| KKLKIWAMPMQDIKMILKMVQLDS | 4.71 |
| KKLKIFCMPMQDIKMILKMVQLDS | 2.66 |
| KKLKIFDMPMQDIKMILKMVQLDS | 3.87 |
| KKLKIFGMPMQDIKMILKMVQLDS | 1.38 |
| KKLKIFHMPMQDIKMILKMVQLDS | 2.52 |
| KKLKIFIMPMQDIKMILKMVQLDS | 3.67 |
| KKLKIFKMPMQDIKMILKMVQLDS | 3.26 |
| KKLKIFMMPMQDIKMILKMVQLDS | 2.6 |
| KKLKIFNMPMQDIKMILKMVQLDS | 2.46 |
| KKLKIFPMPMQDIKMILKMVQLDS | 2.85 |
| KKLKIFQMPMQDIKMILKMVQLDS | 2 |
| KKLKIFRMPMQDIKMILKMVQLDS | 2.61 |
| KKLKIFSMPMQDIKMILKMVQLDS | 3.04 |
| KKLKIFVMPMQDIKMILKMVQLDS | 2.83 |
| KKLKIFWMPMQDIKMILKMVQLDS | 3.77 |
| KKLKIFYMPMQDIKMILKMVQLDS | 4.92 |
| KKLKIFAAPMQDIKMILKMVQLDS | 2.02 |

| Variant | protein stability index |
| --- | --- |
| KKLKIFACPMQDIKMILKMVQLDS | 4.6 |
| KKLKIFADPMQDIKMILKMVQLDS | 3.23 |
| KKLKIFAEPMQDIKMILKMVQLDS | 1.39 |
| KKLKIFAFPMQDIKMILKMVQLDS | 2.88 |
| KKLKIFAHPMQDIKMILKMVQLDS | 3.92 |
| KKLKIFAKPMQDIKMILKMVQLDS | 2.42 |
| KKLKIFALPMQDIKMILKMVQLDS | 2.91 |
| KKLKIFANPMQDIKMILKMVQLDS | 3.02 |
| KKLKIFAPPMQDIKMILKMVQLDS | 1.72 |
| KKLKIFARPMQDIKMILKMVQLDS | 3.05 |
| KKLKIFASPMQDIKMILKMVQLDS | 2.46 |
| KKLKIFATPMQDIKMILKMVQLDS | 2.71 |
| KKLKIFAVPMQDIKMILKMVQLDS | 3.54 |
| KKLKIFAWPMQDIKMILKMVQLDS | 4.52 |
| KKLKIFAMCMQDIKMILKMVQLDS | 2.96 |
| KKLKIFAMFMQDIKMILKMVQLDS | 2.42 |
| KKLKIFAMHMQDIKMILKMVQLDS | 2.22 |
| KKLKIFAMIMQDIKMILKMVQLDS | 2.11 |
| KKLKIFAMLMQDIKMILKMVQLDS | 1.62 |
| KKLKIFAMNMQDIKMILKMVQLDS | 1.79 |
| KKLKIFAMTMQDIKMILKMVQLDS | 4.36 |
| KKLKIFAMVMQDIKMILKMVQLDS | 2.94 |
| KKLKIFAMWMQDIKMILKMVQLDS | 4.76 |
| KKLKIFAMYMQDIKMILKMVQLDS | 1.43 |
